Measured values published in publication PMC8071376.

Columns and labels:
[1] = test system: RelB (untagged, in RelB:RelE-His6 complex);RelE-His6 (Streptococcus pneumoniae R6;Streptococcus pneumoniae R6); assay: DNase I footprinting; details: DNase I footprinting: 40 mM Tris-HCl pH 7.9, 6 mM MgCl2, 1 mM CaCl2, 10 mM NaCl plus 100 mM NaCl, 1 mM DTT, 10% glycerol, 10 ug/mL heparin or 50 ng …
[2] = test system: His6-RelB (Streptococcus pneumoniae R6); assay: DNase I footprinting; details: DNase I footprinting: 40 mM Tris-HCl pH 7.9, 6 mM MgCl2, 1 mM CaCl2, 10 mM NaCl plus 100 mM NaCl, 1 mM DTT, 10% glycerol, 10 ug/mL heparin or 50 ng …

For PrelBE 199-bp promoter fragment, the binding [1] was 1 µM and the binding [2] was 10 µM.
